Fold suppression of T cell proliferation by wildtype B6 MSCs (CFSE, anti-CD3-activated Balb/c splenocytes), Fold suppression of T cell proliferation when PD-L1 is absent from the MSCs (B6 PD-L1-/- MSCs; CFSE, anti-CD3-activated Balb/c splenocytes) and T cell proliferation (CFSE-labelled Balb/c splenocytes activated with anti-CD3, flow cytometry); percent proliferating with wildtype B6 MSCs, against 87% without MSCs data for 1 substance are collected here from patent US20090324609A1.

The target of the assay is PD-1 receptor on T cells of anti-CD3-activated Balb/c splenocytes (mouse) (UniProt Q02242). The assay can be described thus: cell-based or functional assay.
Sequence of UniProt Q02242 (Q02242 25-288): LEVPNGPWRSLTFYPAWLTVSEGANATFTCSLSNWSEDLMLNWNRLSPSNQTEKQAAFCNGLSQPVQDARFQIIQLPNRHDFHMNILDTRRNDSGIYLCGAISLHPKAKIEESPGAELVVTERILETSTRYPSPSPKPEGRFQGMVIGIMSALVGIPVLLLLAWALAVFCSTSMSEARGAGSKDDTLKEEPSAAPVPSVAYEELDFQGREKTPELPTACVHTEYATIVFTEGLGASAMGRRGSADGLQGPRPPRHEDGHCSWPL

For “PD-L1 (Programmed death ligand 1) on the surface of wildtype C57BL/6 mouse mesenchymal stem cells (from UniProt Q9EP73 19-290)”, the Fold suppression of T cell proliferation by wildtype B6 MSCs (CFSE, anti-CD3-activated Balb/c splenocytes) was over 5 fold; the Fold suppression of T cell proliferation when PD-L1 is absent from the MSCs (B6 PD-L1-/- MSCs; CFSE, anti-CD3-activated Balb/c splenocytes) was under 2 fold; the T cell proliferation (CFSE-labelled Balb/c splenocytes activated with anti-CD3, flow cytometry); percent proliferating with wildtype B6 MSCs, against 87% without MSCs came to 16%.
